Measured values taken from patent US20070015230A1 (AMERICAN NATIONAL RED CROSS, published 2007).

Target: T1, Human CRP (Novagen) (human, UniProt P02741 19-224)
T1 construct: also called C-reactive protein
T1 sequence (looked up): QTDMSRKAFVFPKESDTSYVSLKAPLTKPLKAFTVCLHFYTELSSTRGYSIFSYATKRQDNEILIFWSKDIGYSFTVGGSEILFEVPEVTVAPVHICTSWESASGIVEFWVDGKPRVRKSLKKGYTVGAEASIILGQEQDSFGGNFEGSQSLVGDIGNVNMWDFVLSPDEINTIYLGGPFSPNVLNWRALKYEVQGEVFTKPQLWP
Assay: Bead Blot of library beads loaded from CRP-spiked whole blood, detected with an anti-CRP antibody, confirmed by re-incubation

B1: Gly-Asn-Gln-Lys-Trp-Gly (SEQ ID NO: 2), hexamer peptide ligand on a Toyopearl 650 M amino library bead (peptide)
peptide: GNQKWG
notes: also called CRP ligand
B1: binds.
